Residue numbers refer to the chain shown, from its start. Names may count otherwise.
T1: α-fructosyl hexapeptide (α-fructosyl-valyl-histidyl-leucyl-threonyl-proryl-glutamic acid) (not fully specified)
T1 chain: VHLTPE

B1: CFP-H38-dh3 (CFP-H37 with R64G, C280Q) (protein)
chain: MTSNRADTRVIVVGGGGTIGSSTALHLVRSGYAPANITVLDTFEIPSAQSAGHDLNKIMGIDHGNKVNLQMSLEARQMWKEDELFQPFFHNTGRMDCEHTPKGIEKLKKLYQKLHDAGAGLEKTHAWLDNEDEILSKMPLLQRDQIQGWKAIWSQDGGWLAAAKAINAIGQFLKERGVKFGFGGAGSFKQPLFDDEGTTCIGVETADGTKYYADKVVLAAGAWSPTLVDLEDQCCSKAWVYAHIQLTPEEAAEYKGVPVVYNGEFGFFFEPDEFGVIKVQDEFPGFSRFKEHQPYGAPSPKRISVPRSHAKHPTDTYPDASEVSIKKAIATFLPRFQDKELFNRALCWCTDTADSTLLMCEHPKWKNFILATGDSGHSFKILPNVGKYVVELIEGRLPEEMAYQWRWRPGGDALKSRRAAPPKDLADMPGWKHDPKL
B2: CFP-H38-dh2 (CFP-H37 with R64G, F269L) (protein)
chain: B1 chain with F269L, Q280C
B3: CFP-H40 (CFP-T7-H37-R64G/L110Y/H99S), modified amadoriase derived from Coniochaeta sp. (protein)
chain: B1 chain with H99S, L110Y, Q280C
B4: CFP-H38 (CFP-T7-H37-R64G), modified amadoriase derived from Coniochaeta sp. (protein)
chain: B1 chain with Q280C
B5: CFP-H40-dh1 (CFP-H37 with R64G, H99S, L110Y, F269M) (protein)
chain: B1 chain with H99S, L110Y, F269M, Q280C
B6: CFP-H40-dh2 (CFP-H37 with R64G, H99S, L110Y, F269L) (protein)
chain: B1 chain with H99S, L110Y, F269L, Q280C
B7: CFP-H40-dh3 (CFP-H37 with R64G, H99S, L110Y, C280Q) (protein)
chain: B1 chain with H99S, L110Y
B8: CFP-H40-dh4 (CFP-H37 with R64G, H99S, L110Y, F269M, C280Q) (protein)
chain: B1 chain with H99S, L110Y, F269M
B9: CFP-H38-dh1 (CFP-H37 with R64G, F269M) (protein)
chain: B1 chain with F269M, Q280C

Target: hemoglobin A1c (HbA1c)
Sequence (chain, as listed by the source, chain 1 of 2): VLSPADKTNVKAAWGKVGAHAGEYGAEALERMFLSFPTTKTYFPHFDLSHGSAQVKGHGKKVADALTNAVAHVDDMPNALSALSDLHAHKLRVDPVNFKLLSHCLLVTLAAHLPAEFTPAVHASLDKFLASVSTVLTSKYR
Sequence (chain, as listed by the source, chain 2 of 2): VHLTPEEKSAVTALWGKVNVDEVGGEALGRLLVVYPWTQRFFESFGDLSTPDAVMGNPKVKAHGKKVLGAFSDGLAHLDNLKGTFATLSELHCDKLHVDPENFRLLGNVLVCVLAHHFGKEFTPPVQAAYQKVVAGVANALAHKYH

Row | Protein | current response on a screen-printed carbon electrode at 83, 166, 249 and 332 µg/ml HbA1c | dehydrogenase activity on HbA1c (absorbance at 433 nm, WST-3)
1 | B1 | HbA1c was quantified with high accuracy using CFP-H38-dh3 | a significant increase was observed in the absorbance, compared with the control. That is, it was confirmed that CFP-H38-dh3 exhibited dehydrogenase activity on HbA1c

Target: T1, α-fructosyl hexapeptide …

Row | Protein | Dehydrogenase activity (%) with 1 mM αF6P as substrate, relative to oxidase activity of CFP-H38 = 100 | OX/DH (%) relative to CFP-H38 = 100 | OX/DH (ratio of oxidase to dehydrogenase activity, αF6P as substrate) | Oxidase activity (%) with 1 mM αF6P as substrate, relative to oxidase activity of CFP-H38 = 100 | dehydrogenase activity of a 38.4 mg/ml CFP-H38-dh3 solution | dehydrogenase activity of an 8.8 mg/ml CFP-H38-dh3 solution | Dehydrogenase activity (%) with 1 mM αF6P as substrate, relative to oxidase activity of CFP-H40 = 100 | OX/DH (%) relative to CFP-H40 = 100 | Oxidase activity (%) with 1 mM αF6P as substrate, relative to oxidase activity of CFP-H40 = 100
2 | B2 | 8.23% | 30.7% | 3.43 | 28.3% |  |  |  |  | 
3 | B1 | 3.22% | 2.7% | 0.3 | 1% | 38.4 mg/ml (17.8 U/ml) CFP-H38-dh3 solution | 8.8 mg/ml (4.1 U/ml) CFP-H38-dh3 solution |  |  | 
4 | B3 |  |  | 6.2 |  |  |  | 16% | 100% | 100%
5 | B4 | 8.94% | 100% | 11.2 | 100% |  |  |  |  | 
6 | B5 |  |  | 1.3 |  |  |  | 16% | 21% | 21%
7 | B6 |  |  | 1.4 |  |  |  | 5.4% | 23% | 7.5%
8 | B7 |  |  | 0.45 |  |  |  | 29% | 7.3% | 13%
9 | B8 |  |  | 0.35 |  |  |  | 5.4% | 5.7% | 1.9%
10 | B9 | 24% | 20% | 2.23 | 53.4% |  |  |  |  | 
